In paper PMC5030662:
Values joined by “and” are separate entries in the source; they are usually repeats but may differ in a detail not shown here. Identical values can stand only once.

Assays:
[1] = molecular target: voltage-gated potassium channel KV1.6 (rat) (UniProt P17659)
[2] = molecular target: KcsA-KV1.1 hybrid channel; assay: competitive binding on spheroplasts by confocal fluorescence microscopy
[3] = molecular target: KcsA-KV1.3 hybrid channel; assay: as above

UniProt P17659, sequence (P17659 whole entry): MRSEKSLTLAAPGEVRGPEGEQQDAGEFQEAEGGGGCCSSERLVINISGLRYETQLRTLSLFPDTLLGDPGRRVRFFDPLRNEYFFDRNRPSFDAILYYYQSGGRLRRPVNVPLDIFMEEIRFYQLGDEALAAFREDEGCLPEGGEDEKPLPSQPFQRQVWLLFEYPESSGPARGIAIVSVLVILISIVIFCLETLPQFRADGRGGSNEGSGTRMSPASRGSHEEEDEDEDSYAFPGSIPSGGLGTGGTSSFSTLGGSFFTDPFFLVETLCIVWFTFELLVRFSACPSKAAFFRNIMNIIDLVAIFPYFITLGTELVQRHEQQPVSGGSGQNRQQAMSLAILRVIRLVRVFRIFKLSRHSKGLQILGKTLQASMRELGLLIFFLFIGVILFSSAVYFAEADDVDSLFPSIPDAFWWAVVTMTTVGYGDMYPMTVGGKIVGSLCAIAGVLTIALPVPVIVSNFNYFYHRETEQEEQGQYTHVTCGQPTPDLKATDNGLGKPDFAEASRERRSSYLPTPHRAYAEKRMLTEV

Molecule	IC50 of inhibition of KV1.6 currents, two-electrode voltage clamp in Xenopus oocytes [1] [nM]	Kd [2]	Kd [3]
OSK1 (from UniProt P55896 1-38) (peptide)	71		
AgTx2 (from UniProt P46111 1-38) (peptide)	92		
GVPINVSCTGSPQCIKPCKDAGMRFGKCMNRKCHCTPK [AgTx2]		0.049 nM and 0.067 nM	0.031 nM and 0.03 nM
GVIINVKCKISRQCLEPCKKAGMRFGKCMNGKCHCTPK [OSK1]		1.31 nM and 1.42 nM	0.9 nM and 0.7 nM
